Assay results reported in patent US20220162322A1.

Key:
[1] = biological target: human BDCA-2-Fc (hIgG1-Fc-hBDCA-2) (human); assay: SPR (BIAcore T200), huBDCA2-Fc immobilised on CM5 chip, mAb injected
[2] = biological target: human BDCA-2-Fc (hIgG1-Fc-hBDCA-2) (human); assay: ELISA on plate-coated human BDCA2-Fc
[3] = biological target: BDCA-2 (CLEC4C, CD303) on human plasmacytoid dendritic cells (purified pDC or pDC within PBMC) (human) (UniProt Q8WTT0); assay: cell-based or functional assay
Sequence of BDCA-2 (CLEC4C, CD303) on human plasmacytoid dendritic cells (purified pDC or pDC within PBMC) (human) (Q8WTT0 whole entry): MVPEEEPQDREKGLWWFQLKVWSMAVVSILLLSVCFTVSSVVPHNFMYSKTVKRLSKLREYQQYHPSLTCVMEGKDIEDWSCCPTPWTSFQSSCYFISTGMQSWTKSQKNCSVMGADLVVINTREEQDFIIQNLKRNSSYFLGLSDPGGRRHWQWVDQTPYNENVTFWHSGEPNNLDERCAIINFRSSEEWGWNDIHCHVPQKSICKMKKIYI

Sequence of human BDCA-2-Fc (hIgG1-Fc-hBDCA-2) (human) (chain, as listed by the source limits assumed): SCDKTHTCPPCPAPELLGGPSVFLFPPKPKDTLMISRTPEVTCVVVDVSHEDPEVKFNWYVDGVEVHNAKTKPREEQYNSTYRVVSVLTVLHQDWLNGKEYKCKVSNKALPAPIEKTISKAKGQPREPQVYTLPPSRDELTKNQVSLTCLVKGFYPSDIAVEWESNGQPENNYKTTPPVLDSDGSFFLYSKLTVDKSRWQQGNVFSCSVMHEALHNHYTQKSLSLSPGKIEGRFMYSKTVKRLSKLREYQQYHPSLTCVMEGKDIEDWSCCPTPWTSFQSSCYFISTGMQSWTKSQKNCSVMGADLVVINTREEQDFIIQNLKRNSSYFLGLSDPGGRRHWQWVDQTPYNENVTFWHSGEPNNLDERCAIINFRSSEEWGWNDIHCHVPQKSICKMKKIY

anti-BDCA-2 mAb AC144 (Miltenyi Biotec, cat. no. 130-090-690) (antibody)
Kd [1]: 2.3 nM
EC50 [2]: 0.27 nM
IC50, nM; inhibition of IFNα from ODN stimulated healthy donor PBMC [3]: 1.52 nM
IC50, ng/ml; inhibition of IFNα from ODN stimulated healthy donor PBMC [3]: 228 ng/mL
IC90, nM; inhibition of IFNα from ODN stimulated healthy donor PBMC [3]: 13.7 nM
IC90, ng/ml; inhibition of IFNα from ODN stimulated healthy donor PBMC [3]: 2060 ng/mL
